This assay has as its target LC3B LIR docking site (LDS) mutant (F52A/L53A) (UniProt Q9GZQ8). Put plainly: ITC. On the technique in general: In ITC the heat of successive injections is recorded.

The Kd is the concentration at which binding is half-saturated. Low readings indicate higher affinity, high ones lower affinity. Regarding “tepsin LIR motif peptide (residues 185-193)”, the Kd was greater than 300 µM.

The values above are taken from article doi:10.1101/2023.07.18.549521.
